Assays:
E-selectin = experiment: RT-PCR of adhesion molecule mRNA in HCEC; assay type: cell-based, human; settings: CAP37 1 μg/ml, 0-24 hr
Experimental: Cultured HCEC were treated with CAP37 (1 μg/ml) for 0-24 hr at 37° C. Total cellular RNA was isolated from untreated and treated HCEC according to vendor specifications (TRIzol™, GIBCO BRL). After reverse-transcription of 5 μg of total RNA by SuperScript™ II RT (GIBCOBRL) the resulting single stranded cDNA was amplified by PCR (BIOMETRA TGRADIENT, Göttingen, Germany) using specific primers for ICAM-1 (([…] (SEQ ID NO:11) and […] (SEQ ID NO:12)); VCAM-1 (([…] (SEQ ID NO:13) and […] (SEQ ID NO:14)); PECAM-1 (([…] (SEQ ID NO:15) and […] (SEQ ID NO:16)); E-selectin (([…] (SEQ ID NO:17) and […] (SEQ ID NO:18)); and β-actin ((TACCTCATGAAGATCCTCA (SEQ ID NO:19) and TTCGTGGATGCCACAGGAC (SEQ ID NO:20))) synthesized by the Molecular Biology Resource Facility, University of Oklahoma Health Sciences Center. The thermocycler conditions for ICAM-1 and VCAM-1 were 95° C. for 5 min initially, with 30 cycles at 95° C. for 1 min, 58° C. for 45 sec, 72° C. for 1 min followed by a final extension at 72° C. for 7 min. The conditions for E-selectin were 95° C. for 5 min initially, with 30 cycles at 94° C. for 1 min, 58° C. for 1 min, 72° C. for 1 min followed by a final extension at 72° C. for 5 min. The conditions for PECAM-1 were 95° C. for 5 min initially, with 30 cycles at 95° C. for 45 sec, 60° C. for 1 min, 72° C. for 1 min followed by a final extension at 72° C. for 5 min.
Amplified DNA fragments were separated by electrophoresis on a 1% agarose gel and visualized by exposure to UV after ethidium bromide (0.5 μg/ml) staining. Expected sizes for ICAM-1, VCAM-1, PECAM-1, E-selectin and β-actin were 943 bp, 700 bp, 677 bp, 315 bp and 267 bp, respectively. To assess the integrity of the cDNA, primers for human β-actin were used.

[1] = system: human corneal epithelial cells (HCEC); experiment: Modified Boyden chamber chemotaxis / checkerboard assay; assay type: cell-based; settings: for Number of cells migrated: 4 hr
Experimental: Human corneal epithelial cells were cultured in basic medium overnight, detached using trypsin-EDTA as described above and resuspended at a final concentration of 8×10^5 cells/ml. Chemotaxis assays were performed using the modified Boyden chamber assay described previously (13). Briefly, 200 (μl of cell suspension was added to the upper chamber and chemoattractants including recombinant CAP37 (10-2000 ng/ml) and the positive control recombinant human Platelet Derived Growth Factor-BB (PDGF-BB, 10 ng/ml, Collaborative Biomedical Products, Bedford Mass.) in 0.1% BSA (endotoxin-low-Sigma, St. Louis) in Geys' Buffer (GIBCO) were added to the lower chamber. The chambers were separated by an 8.0 μm pore membrane (13 mm polyvinylpyrrolidone-free, Whatman, Clifton, N.J.). Membranes were pre-coated with 50 μg/ml collagen type I rat tail (Collaborative Biomedical Products) in 0.02N acetic acid at room temperature for 1 hr and then air dried. Membranes were re-hydrated in basic cell culture medium immediately prior to commencement of each experiment. The negative control in these experiments was 0.1% BSA in Geys' buffer. The chambers were incubated in a humidified atmosphere (37° C., 5% CO2) for 4 hr, the filters were removed, stained with DIFF-QUICK (Dade Behring, Düdingen, Switzerland) and mounted with Permount (FISHER SCIENTIFIC, Pittsburgh, Pa.). The filters were viewed under oil immersion (×400 magnification, BH-2, Olympus, Lake Success, N.Y.) and the total numbers of cells migrated through to the underside of the filter were counted in five different fields on each slide. Triplicates were set up for each experimental point.
To assess whether CAP37 had chemokinetic properties, various concentrations of CAP37 (0, 10, 100 and 1000 ng/ml) were added to the upper chamber as well as to the lower chamber (0, 10, 100, 500, 1000 ng/ml) and a checkerboard assay performed according to the methodology of Zigmond and Hirsch (46).

ICAM-1 = experiment: Flow cytometry of ICAM-1 expression on HCEC; assay type: cell-based, human; settings: for Upregulation of ICAM-1: 1000 ng/ml
Experimental: Flow cytometry was used to assess the upregulation of ICAM-1 and VCAM-1 on HCEC in response to CAP37 treatment. HCEC were cultured as described above and treated with CAP37 (0-2000 ng/ml) for 0, 2, 6, 24, 48 and 72 hr. A corresponding culture was left untreated at each time point. Following treatment with CAP37, cells were detached with 5 mM EDTA (pH 7.4, Fisher Scientific), washed twice in PBS and fixed with 0.125% paraformaldehyde (J.T. Baker, Phillipsburg, N.J.) overnight at 4° C. The cells were washed in PBS and then incubated in 0.5% normal goat serum and 0.5% BSA in PBS for 30 min to block non-specific binding sites. For determination of ICAM-1 expression, cells were incubated in the primary antibody (FITC-labeled mouse anti-human ICAM-1, BIOSOURCE, Camarillo, Calif.) at 10^6 cells/10 μl at 4° C. for 1 hr. Cells were washed in PBS and analyzed by flow cytometry (FACSTAR, BECTON DICKINSON, San Jose, Calif.). For detection of VCAM-1 expression, cells were incubated with unlabeled primary antibody (monoclonal mouse anti human VCAM-1, ENDOGEN, Woburn, Mass. at 2 μg/10^6 cells) followed by FITC-labeled goat anti-mouse IgG (PHARMINGEN, San Diego, Calif.) at 5 μg/10^6 cells and incubated at 4° C. for 30 min. The isotype control for these studies was FITC-labeled mouse isotype IgG1 (PHARMINGEN). The positive control used in these studies was TNF-α (5 ng/ml). At least ten thousand cells were analyzed for each sample.

B1: CAP37: Cationic Antimicrobial Protein of Mr 37 kDa; recombinant protein from human 293 cells, identical to native PMN-derived CAP37 (SEQ ID NO:1) (protein, listed as Homo sapiens)
chain: IVGGRKARPRQFPFLASIQNQGRHFCGGALIHARFVMTAASCFQSQNPGVSTVVLGAYDLRRRERQSRQTFSISSMSENGYDPQQNLNDLMLLQLDREANLTSSVTILPLPLQNATVEAGTRCQVAGWGSQRSGGRLSRFPRFVNVTVTPEDQCRPNNVCTGVLTRRGGICNGDGGTPLVCEGLAHGVASFSLGPCGRGPDFFTRVALFRDWIDGVLNNPGP
mRNA expression of E-selectin (E-selectin): did not show increase in mRNA expression
Chemotactic activity ([1]; 2000 ng/ml): reduced but still measurably active
Concentration range of maximal chemotactic activity ([1]; Boyden chamber): 500 to 1000 ng/mL
Number of cells migrated ([1]; CAP37 above the filter 0 ng/ml, below the filter 10 ng/ml): 28.56 ± 7.64
Number of cells migrated ([1]; CAP37 above the filter 0 ng/ml, below the filter 100 ng/ml): 39.82 ± 6.20
Number of cells migrated ([1]; CAP37 above the filter 0 ng/ml, below the filter 500 ng/ml): 68.89 ± 7.70
Number of cells migrated ([1]; CAP37 above the filter 0 ng/ml, below the filter 1000 ng/ml): 67.34 ± 8.42
Number of cells migrated ([1]; CAP37 above the filter 10 ng/ml, below the filter 10 ng/ml): 27.63 ± 3.03
Number of cells migrated ([1]; CAP37 above the filter 10 ng/ml, below the filter 100 ng/ml): 39.80 ± 6.93
Number of cells migrated ([1]; CAP37 above the filter 10 ng/ml, below the filter 500 ng/ml): 52.40 ± 15.76
Number of cells migrated ([1]; CAP37 above the filter 10 ng/ml, below the filter 1000 ng/ml): 62.73 ± 9.66
Number of cells migrated ([1]; CAP37 above the filter 100 ng/ml, below the filter 100 ng/ml): 36.63 ± 6.48
Number of cells migrated ([1]; CAP37 above the filter 100 ng/ml, below the filter 1000 ng/ml): 48.57 ± 15.58
Number of cells migrated ([1]; CAP37 above the filter 1000 ng/ml, below the filter 100 ng/ml): 28.08 ± 2.76
Number of cells migrated ([1]; CAP37 above the filter 1000 ng/ml, below the filter 1000 ng/ml): 38.13 ± 6.07
Levels of migration relative to positive control ([1]; PDGF-BB 10 ng/ml as positive control): comparable to those obtained with the positive control, PDGF
Upregulation of ICAM-1 (ICAM-1; 2 hr): no upregulation of ICAM-1 could be detected
Upregulation of ICAM-1 (ICAM-1; 6 hr): significant upregulation of ICAM-1
Upregulation of ICAM-1 (ICAM-1; 24 hr): still above the untreated levels
ICAM-1 levels relative to positive control (ICAM-1; 1000-2000 ng/ml, TNF-α 5 ng/ml as positive control): comparable to those obtained with the positive control TNF-α
Concentration giving maximum upregulation of ICAM-1 (ICAM-1; HCEC, 6 hr, flow cytometry): 1000 to 2000 ng/mL
ICAM-1 levels (ICAM-1; concentrations between 10 and 500 ng/ml): Lower, yet significant levels of ICAM-1
